Measured values from the supplement of paper PMC11908140.

B1: library; numbered along this chain (parent)
chain: MRKPRAAVGSGHRKQAASQEGRQKHAKNNSQAKPSACDGLARQPEEVVLQASVSSYHLFRDVAEVTAFRGSLLSWYDQEKRDLPWRRRAEDEMDLDRRAYAVWVSEVMLQQTQVATVINYYTGWMQKWPTLQDLASASLEEVNQLWAGLGYYSRGRRLQEGARKVVEELGGHMPRTAETLQQLLPGVGRYTAGAIASIAFGQATGVVDGNVARVLCRVRAIGADPSSTLVSQQLWGLAQQLVDPARPGDFNQAAMELGATVCTPQRPLCSQCPVESLCRARQRVEQEQLLASGSLSGSPDVEECAPNTGQCHLCLPPSEPWDQTLGVVNFPRKASRKPPREESSATCVLEQPGALGAQILLVQRPNSGLLAGLWEFPSVTWEPSEQLQRKALLQELQRWAGPLPATHLRHLGEVVHTFSHIKLTYQVYGLALEGQTPVTTVPPGARWLTQEEFHTAAVSTAMKKVFRVYQGQQPGTCMGSKRSQVSSPCSRKKPRMGQQVLDNFFRSHISTDAHSLNSAAQ

Variants of: B1
Assay: 8OG:A repair function score (normalized; synonymous = 0, nonsense = -1) (normalized log-likelihood score); higher = more repair activity (WT-like)
Settings: with 8OG:A DNA repair reporter (GFP) in HEK-293 MUTYH KO cells
Procedure, shortened: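 Lentiviral MUTYH cDNA NNN codon-scan libraries in HEK-293 MUTYH knockout cells (10 pg/ml doxycycline) were co-transfected with an 8OG:A GFP repair reporter plus mCherry. At 72 h, viable mCherry+ cells were sorted into GFP+ (repair) and GFP− bins, three replicates per tile, then tile amplicons were sequenced. Per-tile Rosace fitness scores became a normalized repair function score anchored on synonymous and nonsense distributions. Synonymous medians were set to 0 and nonsense to -1; variants under 300 counts per million at the start were removed.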

| Variant | 8OG:A repair function score |
| --- | --- |
| V465T | -0.191 |
| V465D | -0.864 |
| V465F | -0.73 |
| V465Q | -1.17 |
| V465N | -0.54 |
| V465H | -0.79 |
| V465Y | -1.23 |
| V465I | -0.0425 |
| V465P | -1.18 |
| V465A | -0.0879 |
| V465W | -1.07 |
| V465G | -0.801 |
| V465K | -1.19 |
| V465E | -1.42 |
| V465R | -1.13 |
| V465M | -0.396 |
| V465L | -0.379 |
| V465S | -0.646 |
| V465C | 0.0124 |
| F466I | -0.587 |
| F466Q | -0.488 |
| F466H | -0.355 |
| F466S | -0.715 |
| F466A | -0.4 |

| Variant | 8OG:A repair function score |
| --- | --- |
| F466L | -0.0617 |
| F466Y | 0.00857 |
| F466C | -0.319 |
| F466V | -0.443 |
| F466T | -0.725 |
| F466M | -0.0599 |
| F466K | -0.729 |
| F466W | -0.0618 |
| F466E | -0.52 |
| F466N | -0.0913 |
| F466D | -0.872 |
| F466R | -0.568 |
| F466G | -0.584 |
| F466P | -1.3 |
| G471I | -0.00761 |
| G471N | 0.00878 |
| G471H | 0.00339 |
| G471V | 0.00448 |
| G471C | -0.0198 |
| G471Y | 0.0198 |
| G471T | -0.0359 |
| G471M | 0.011 |
| G471S | 0.0169 |
| G471Q | 0.00928 |

| Variant | 8OG:A repair function score |
| --- | --- |
| G471L | -0.0292 |
| G471F | -0.0055 |
| G471K | 0.0191 |
| G471R | 0.00545 |
| G471D | 0.0172 |
| G471A | 0.0172 |
| G471W | -0.0505 |
| G471P | -0.0663 |
| G471E | -0.0561 |
| Q473D | -0.0165 |
| Q473E | -0.021 |
| Q473A | -0.00985 |
| Q473C | 6.68e-05 |
| Q473L | -0.0116 |
| Q473I | -0.0484 |
| Q473F | 0.00513 |
| Q473G | 0.0222 |
| Q473H | 0.0203 |
| Q473K | -0.0281 |
| V468G | -0.557 |
| V468H | -0.0347 |
| V468Q | -0.0492 |
| V468L | -0.00361 |
| V468E | -0.259 |

| Variant | 8OG:A repair function score |
| --- | --- |
| V468T | -0.0398 |
| V468M | -0.0306 |
| V468S | -0.18 |
| V468D | -0.647 |
| V468A | -0.0846 |
| V468Y | -0.025 |
| V468F | -0.0236 |
| V468P | -0.969 |
| V468W | -0.204 |
| V468R | -0.101 |
| V468N | -0.262 |
| V468C | -0.0116 |
| V468I | -0.0279 |
| V468K | -0.0375 |
| Q472A | 0.0214 |
| Q472K | -0.009 |
| Q472C | -0.0129 |
| Q472E | -0.00354 |
| Q472H | -0.152 |
| Q472G | -0.000609 |
| Q472Y | 0.00647 |
| Q472V | 0.00907 |
| Q472L | 0.022 |
| Q472P | 0.0113 |

| Variant | 8OG:A repair function score |
| --- | --- |
| Q472I | 0.0116 |
| Q472S | 0.0274 |
| Q472M | -0.0129 |
| Q472N | 0.0284 |
| Q472W | 0.027 |
| Q472F | 0.018 |
| Q472D | 0.0112 |
| Q472R | 0.0222 |
| Q472T | -0.00129 |
| Y469C | -0.193 |
| Y469E | -0.89 |
| Y469S | -0.115 |
| Y469Q | -0.317 |
| Y469H | -0.0773 |
| Y469D | -0.955 |
| Y469P | -0.718 |
| Y469R | -0.195 |
| Y469G | -0.451 |
| Y469I | -0.259 |
| Y469F | -0.0628 |
| Y469W | 0.00845 |
| Y469T | -0.181 |
| Y469N | -0.738 |
| Y469L | -0.314 |

| Variant | 8OG:A repair function score |
| --- | --- |
| Y469K | -0.326 |
| Y469V | -0.153 |
| Y469M | -0.259 |
| Y469A | -0.0759 |
| R467A | 0.0232 |
| R467G | -0.0609 |
| R467T | -0.0575 |
| R467D | -0.0155 |
| R467E | -0.144 |
| R467W | -0.034 |
| R467K | -0.0257 |
| R467S | -0.0606 |
| R467Y | -0.0417 |
| R467Q | -0.0758 |
| R467P | -0.876 |
| R467L | -0.0425 |
| R467H | -0.0349 |
| R467C | -0.137 |
| R467F | -0.0681 |
| R467N | -0.0631 |
| R467M | -0.057 |
| R467V | -0.105 |
| R467I | -0.0576 |
| K464T | -0.351 |

| Variant | 8OG:A repair function score |
| --- | --- |
| K464S | -0.198 |
| K464W | -0.474 |
| K464Y | -0.503 |
| K464V | -0.276 |
| Q470E | -0.000322 |
| Q470D | -0.0832 |
| Q470T | -0.0526 |
| Q470G | -0.105 |
| Q470W | -0.0772 |
| Q470V | -0.00474 |
| Q470P | -0.426 |
| Q470F | -0.0175 |
| Q470K | 0.0155 |
| Q470A | -0.0419 |
| Q470L | 0.00494 |
| Q470S | -0.00501 |
| Q470M | -0.0791 |
| Q470I | 0.00254 |
| Q470H | -0.029 |
| Q470R | -0.00198 |
| Q470N | 0.0117 |
| Q470C | -0.00083 |
| Q470Y | -0.0671 |
